Blank lines part the entries; values can stand above or below the molecule they belong to.
Key:
[1] = target: T1, Cx43 hemichannels in human synovial fibroblast SW982 cells (Homo sapiens, UniProt P17302); assay: EtBr dye uptake assay in IL1β-treated SW982 cells; type: cell-based
T1 construct: endogenous in cells; host or cells: SW982 (human synovial fibroblast), IL1β-treated
Description: (§1) Dye uptake assay. Cells were incubated with a mixture of 0.1 mM ethidium bromide (EtBr, MW 394 Da) and 1 mg/ml FITC-dextran (MW 10 kDa) for 5 minutes. EtBr was used as a tracer to detect hemichannel activity, and FITC-dextran, which is too large to pass through hemichannels but is taken up by dying cells, was used as a negative control. Cells were then rinsed five times with PBS, followed by fixing with 2% paraformaldehyde for 10 minutes. At least six microphotographs of fluorescence fields were captured under a 20× fluorescent microscope (Keyence, BZ-X710, Osaka, Japan). For each image, the average intensity of EtBr fluorescence was measured and quantified from at least 30 random cells using ImageJ software (NIH, Bethesda, USA). […]
(§2) Anti-Cx43 hemichannel antibody (M1 antibody) blocked Cx43 hemichannel opening and inflammatory gene expression in RAW264.7 and SW982 cells. […] The activity of Cx43 hemichannels was determined using EtBr dye uptake assay. […] Next, MMP3/13, Cyclooxygenase 2 (COX2), ADAM metallopeptidase with thrombospondin type 1 motif 4 (Adamts4), and IL6 gene expression was determined with or without Cx43E2 antibody after LPS treatment of RAW264.7 cells (FIG. 18). […] In addition, MMP3/13, COX2, Adamts4/5, and Nitric Oxide Synthase 2 (NOS2) gene expression was evaluated in IL1β-treated SW982 cells (FIG. 19).

[2] = target: T2, Cx43 hemichannels in mouse macrophage RAW264.7 cells (Mus musculus, UniProt P23242); assay: EtBr dye uptake assay in LPS-treated RAW264.7 cells; type: cell-based
T2 construct: endogenous in cells; host or cells: RAW264.7 (mouse macrophage), LPS-treated
Description: as §1, §2

[3] = target: T3, Connexin 43 (Cx43) hemichannel, mouse (mouse, UniProt P23242 2-382); assay: in vivo binding after i.p. injection; frozen knee sections stained with Alexa Fluor 594 anti-human IgG
T3 construct: whole, on cells; also called Cx43 HCs
Description: M1 antibody binds to synovium and inhibits hemichannel opening in OA. Due to the dense nature of cartilage and large size of antibodies, a widely held perception is that antibodies are unable to penetrate the cartilage matrix. To determine the antibody binding pattern in the knee joint region, M1 antibody (25 mg/kg) with human IgG epitope or saline was intraperitoneally (i.p.) injected at 30 mins after DMM surgery. As shown in the diagram (FIG. 8A), mice were euthanized and perfused before isolation of hindlimbs at one or two weeks after injection. Frozen tissue sections were prepared and immuno-labeled with Alexa Fluor 594-conjugated anti-human IgG secondary antibody. The signal was detectable at both one and two weeks after antibody administration, with the antibody binding site primarily localized in the synovium region (FIG. 8B). The synovium of joints comprises macrophage-like type A cells, which are responsible for phagocytosing synovial fluid, and fibroblast-like type B cells, which produce hyaluronic acid and mucin to nourish and mechanically protect, respectively, the underlying articular cartilage (Donahue H J, et al. Nature reviews Rheumatology. 2017; 14(1):42-51). Then the sections were immuno-labeled with the macrophage marker CD68, and the M1 antibody was co-localized with CD68 in the synovium region (FIG. 9). […]

[4] = system: IL1β-induced inflammatory gene expression in SW982 cells; assay: qRT-PCR of IL1β-induced inflammatory gene expression in SW982 cells; type: cell-based, human; details: pre-incubated 30 min, 1 ng/ml IL1β for 14 hrs
Description: Human synovial fibroblast SW982 cells were pre-incubated with or without the Cx43E2 antibody for 30 min followed by incubation with 1 ng/ml IL1β for 14 hrs. RNA extracts were prepared and subjected to qRT-PCR analysis for COX2, Adamts4/5, MMP3/13 and NOS2 mRNA expression. *P<0.05, **P<0.01.
(§3) RNA isolation and real-time PCR. Total RNA was isolated from RAW264.7 and SW982 cells using TRI Reagent (Molecular Research Center, Cincinnati, USA) according to the manufacturer's instructions. After RNA quantification by Nanodrop 2000, cDNA was synthesized from 1 μg of total RNA using the high-capacity RNA-to-cDNA kit (Thermo Fisher Scientific, Waltham, USA). […]
as §2

[5] = system: LPS-induced inflammatory gene expression in RAW264.7 cells; assay: qRT-PCR of LPS-induced inflammatory gene expression in RAW264.7 cells; type: cell-based, mouse; details: pre-incubated 30 min, 0.1 μg/ml LPS for 4 hrs
Description: Mouse macrophage RAW264.7 cells were pre-incubated with or without the Cx43E2 antibody for 30 min followed by incubation with 0.1 μg/ml LPS for 4 hrs. RNA extracts were prepared and subjected to qRT-PCR analysis for COX2, Adamts4, MMP3/13 and IL6 mRNA expression. *P<0.05, **P<0.01.
as §3, §2

T1 sequence (P17302 whole entry): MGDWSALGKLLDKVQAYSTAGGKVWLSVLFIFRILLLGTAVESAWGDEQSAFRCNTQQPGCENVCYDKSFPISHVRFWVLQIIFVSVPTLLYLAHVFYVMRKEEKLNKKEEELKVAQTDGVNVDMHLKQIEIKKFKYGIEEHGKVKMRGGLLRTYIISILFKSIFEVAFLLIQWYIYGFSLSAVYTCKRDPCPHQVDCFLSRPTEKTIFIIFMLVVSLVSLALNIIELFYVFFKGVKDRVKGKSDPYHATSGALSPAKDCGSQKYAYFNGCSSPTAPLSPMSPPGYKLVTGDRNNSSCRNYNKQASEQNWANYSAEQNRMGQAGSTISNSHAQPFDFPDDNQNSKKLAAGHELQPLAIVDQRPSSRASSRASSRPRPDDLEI
T2 sequence (P23242 whole entry): as the sequence (P17302 whole entry) above, with D124E, I164V, K243R, S251T, A253P, A257S, Q263P, N341S, S344A, L347V counted along it
T3 sequence (P23242 2-382): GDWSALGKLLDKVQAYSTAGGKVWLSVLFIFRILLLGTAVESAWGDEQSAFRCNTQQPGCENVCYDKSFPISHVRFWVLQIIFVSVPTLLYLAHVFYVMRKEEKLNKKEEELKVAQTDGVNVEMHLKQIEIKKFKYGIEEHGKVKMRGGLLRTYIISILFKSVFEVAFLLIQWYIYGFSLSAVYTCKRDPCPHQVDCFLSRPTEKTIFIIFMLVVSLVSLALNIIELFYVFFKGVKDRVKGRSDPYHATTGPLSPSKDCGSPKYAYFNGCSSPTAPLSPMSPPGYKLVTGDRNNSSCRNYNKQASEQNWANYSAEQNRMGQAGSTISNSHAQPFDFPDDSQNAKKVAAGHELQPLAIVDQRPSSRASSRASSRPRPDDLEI

IL1β-induced increase of Cx43 hemichannel opening (EtBr dye uptake) ([1]; CBX 100 μM): abolished | LPS-induced increase of Cx43 hemichannel opening (EtBr dye uptake) ([2]; CBX 100 μM): abolished
Molecule: CC1(C)[C@@H](OC(=O)CCC(=O)O)CC[C@]2(C)[C@H]3C(=O)C=C4[C@@H]5C[C@@](C)(C(=O)O)CC[C@]5(C)CC[C@@]4(C)[C@]3(C)CC[C@@H]12 [carbenoxolone, reference compound]

binding result [3]: binds
B1: M1 antibody (anti-Cx43 hemichannel blocking antibody) (antibody, V domains shown)
VH: EVQLQQPGAELVKPGASVKLSCKASGYTFTSYYMYWVKQRPGQGLEWIGGINPSNGGTNFNEKFKNKATLTVDKSSSTAYMQLSSLTSEDSAVYYCTREGNPYYTMNYWGQGTSVTVSS
VL: DIVMTQSPSSLSVSAGEKVTMSCKSSQSLLNSGNQKTYLAWYQQKPGQPPKLLIYGASTRESGVPDRFTGSGSGTDFTLTISSVQAEDLAVYYCQNDHSYPFTFGSGTKLEIK
notes: also called HmAb1; anti-Cx43 hemichannel antibody

IL1β-induced increase of Cx43 hemichannel opening (EtBr dye uptake) ([1]; antibody 2 μg/ml): abolished | LPS-induced increase of Cx43 hemichannel opening (EtBr dye uptake) ([2]; antibody 2 μg/ml): abolished
B2: Cx43E2 blocking antibody: Cx43 hemichannel blocking antibody used in RAW264.7 and SW982 cells; headings and legends call it anti-Cx43 hemichannel antibody (M1 antibody) (antibody, V domains shown)
VH: EVQLQQPGAELVKPGASVKLSCKASGYTFTSYYMYWVKQRPGQGLEWIGGINPSNGGTNFNEKFKNKATLTVDKSSSTAYMQLSSLTSEDSAVYYCTREGNPYYTMNYWGQGTSVTVSS
VL: DIVMTQSPSSLSVSAGEKVTMSCKSSQSLLNSGNQKTYLAWYQQKPGQPPKLLIYGASTRESGVPDRFTGSGSGTDFTLTISSVQAEDLAVYYCQNDHSYPFTFGSGTKLEIK
MMP3/13, COX2, Adamts4/5 and NOS2 gene expression after IL1β treatment [4]: significantly reduced | LPS-induced up-regulation of MMP3/13, COX2, Adamts4 and IL6 gene expression [5]: markedly decreased

Reference: patent publication US20240076371A1, “COMPOSITIONS AND METHODS FOR TREATING OSTEOARTHRITIS, RHEUMATOID ARTHRITIS, AND JOINT AND TENDON DISORDERS” (BOARD OF REGENTS, THE UNIVERSITY OF TEXAS SYSTEM, priority 2021, published 2024)
